Data as given in IntAct's records for PubMed 25910212.

B1: Keratin, type I cytoskeletal 18 (Homo sapiens), P05783 (parent)
chain: MSFTTRSTFSTNYRSLGSVQAPSYGARPVSSAASVYAGAGGSGSRISVSRSTSFRGGMGSGGLATGIAGGLAGMGGIQNEKETMQSLNDRLASYLDRVRSLETENRRLESKIREHLEKKGPQVRDWSHYFKIIEDLRAQIFANTVDNARIVLQIDNARLAADDFRVKYETELAMRQSVENDIHGLRKVIDDTNITRLQLETEIEALKEELLFMKKNHEEEVKGLQAQIASSGLTVEVDAPKSQDLAKIMADIRAQYDELARKNREELDKYWSQQIEESTTVVTTQSAEVGAAETTLTELRRTVQSLEIDLDSMRNLKASLENSLREVEARYALQMEQLNGILLHLESELAQTRAEGQRQAQEYEALLNIKVKLEAEIATYRRLLEDGEDFNLGDALDSSNSMQTIQKTTTRRIVDGKVVSETNDTKVLRH
B2: Meiotic recombination protein DMC1/LIM15 homolog (Homo sapiens), Q14565 (parent)
chain: MKEDQVVAEEPGFQDEEESLFQDIDLLQKHGINVADIKKLKSVGICTIKGIQMTTRRALCNVKGLSEAKVDKIKEAANKLIEPGFLTAFEYSEKRKMVFHITTGSQEFDKLLGGGIESMAITEAFGEFRTGKTQLSHTLCVTAQLPGAGGYPGGKIIFIDTENTFRPDRLRDIADRFNVDHDAVLDNVLYARAYTSEHQMELLDYVAAKFHEEAGIFKLLIIDSIMALFRVDFSGRGELAERQQKLAQMLSRLQKISEEYNVAVFVTNQMTADPGATMTFQADPKKPIGGHILAHASTTRISLRKGRGELRIAKIYDSPEMPENEATFAITAGGIGDAKE
B3: U4/U6 small nuclear ribonucleoprotein Prp31 (Homo sapiens), Q8WWY3 (parent)
chain: MSLADELLADLEEAAEEEEGGSYGEEEEEPAIEDVQEETQLDLSGDSVKTIAKLWDSKMFAEIMMKIEEYISKQAKASEVMGPVEAAPEYRVIVDANNLTVEIENELNIIHKFIRDKYSKRFPELESLVPNALDYIRTVKELGNSLDKCKNNENLQQILTNATIMVVSVTASTTQGQQLSEEELERLEEACDMALELNASKHRIYEYVESRMSFIAPNLSIIIGASTAAKIMGVAGGLTNLSKMPACNIMLLGAQRKTLSGFSSTSVLPHTGYIYHSDIVQSLPPDLRRKAARLVAAKCTLAARVDSFHESTEGKVGYELKDEIERKFDKWQEPPPVKQVKPLPAPLDGQRKKRGGRRYRKMKERLGLTEIRKQANRMSFGEIEEDAYQEDLGFSLGHLGKSGSGRVRQTQVNEATKARISKTLQRTLQKQSVVYGGKSTIRDRSSGTASSVAFTPLQGLEIVNPQAAEKKVAEANQKYFSSMAEFLKVKGEKSGLMST
partner: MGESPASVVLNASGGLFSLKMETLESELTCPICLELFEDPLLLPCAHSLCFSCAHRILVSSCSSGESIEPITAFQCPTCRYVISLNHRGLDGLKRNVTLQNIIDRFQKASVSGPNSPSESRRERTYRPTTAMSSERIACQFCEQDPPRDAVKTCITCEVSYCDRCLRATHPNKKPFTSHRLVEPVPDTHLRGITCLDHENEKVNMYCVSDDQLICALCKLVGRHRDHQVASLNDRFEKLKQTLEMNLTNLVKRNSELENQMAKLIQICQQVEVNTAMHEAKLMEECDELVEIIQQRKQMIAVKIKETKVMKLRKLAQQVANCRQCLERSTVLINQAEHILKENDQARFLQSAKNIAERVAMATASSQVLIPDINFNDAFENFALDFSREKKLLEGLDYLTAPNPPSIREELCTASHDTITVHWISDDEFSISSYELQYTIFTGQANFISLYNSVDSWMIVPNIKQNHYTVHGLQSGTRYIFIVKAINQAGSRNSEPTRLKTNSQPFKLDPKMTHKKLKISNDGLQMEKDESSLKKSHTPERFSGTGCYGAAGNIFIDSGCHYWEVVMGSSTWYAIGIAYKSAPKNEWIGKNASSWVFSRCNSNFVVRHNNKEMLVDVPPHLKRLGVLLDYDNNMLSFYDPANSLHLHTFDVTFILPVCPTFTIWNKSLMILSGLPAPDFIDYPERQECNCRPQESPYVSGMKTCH
B4: Pigment epithelium-derived factor (Homo sapiens), P36955 (parent)
chain: MQALVLLLCIGALLGHSSCQNPASPPEEGSPDPDSTGALVEEEDPFFKVPVNKLAAAVSNFGYDLYRVRSSTSPTTNVLLSPLSVATALSALSLGAEQRTESIIHRALYYDLISSPDIHGTYKELLDTVTAPQKNLKSASRIVFEKKLRIKSSFVAPLEKSYGTRPRVLTGNPRLDLQEINNWVQAQMKGKLARSTKEIPDEISILLLGVAHFKGQWVTKFDSRKTSLEDFYLDEERTVRVPMMSDPKAVLRYGLDSDLSCKIAQLPLTGSMSIIFFLPLKVTQNLTLIEESLTSEFIHDIDRELKTVQAVLTVPKLKLSYEGEVTKSLQEMKLQSLFDSPDFSKITGKPIKLTQVEHRAGFEWNEDGAGTTPSPGLQPAHLTFPLDYHLNQPFIFVLRDTDTGALLFIGKILDPRGP
partner: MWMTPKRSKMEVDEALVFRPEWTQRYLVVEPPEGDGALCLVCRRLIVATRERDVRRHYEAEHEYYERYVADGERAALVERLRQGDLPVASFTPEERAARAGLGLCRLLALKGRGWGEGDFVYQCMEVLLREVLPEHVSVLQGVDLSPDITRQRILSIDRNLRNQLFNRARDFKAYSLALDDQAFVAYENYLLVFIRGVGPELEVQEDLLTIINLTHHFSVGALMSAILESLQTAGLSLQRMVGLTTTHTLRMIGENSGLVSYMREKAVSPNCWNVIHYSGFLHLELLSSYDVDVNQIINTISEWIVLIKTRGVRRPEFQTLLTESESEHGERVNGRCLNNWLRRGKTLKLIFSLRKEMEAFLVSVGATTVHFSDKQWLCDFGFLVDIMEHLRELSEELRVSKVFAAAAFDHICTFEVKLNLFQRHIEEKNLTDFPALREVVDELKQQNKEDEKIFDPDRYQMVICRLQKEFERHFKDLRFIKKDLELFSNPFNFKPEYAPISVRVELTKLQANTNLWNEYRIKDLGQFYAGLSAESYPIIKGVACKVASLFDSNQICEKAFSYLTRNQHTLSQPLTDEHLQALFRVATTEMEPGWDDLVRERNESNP
B5: Neutrophil cytosol factor 2 (Homo sapiens), P19878 (parent)
chain: MSLVEAISLWNEGVLAADKKDWKGALDAFSAVQDPHSRICFNIGCMYTILKNMTEAEKAFTRSINRDKHLAVAYFQRGMLYYQTEKYDLAIKDLKEALIQLRGNQLIDYKILGLQFKLFACEVLYNIAFMYAKKEEWKKAEEQLALATSMKSEPRHSKIDKAMECVWKQKLYEPVVIPVGKLFRPNERQVAQLAKKDYLGKATVVASVVDQDSFSGFAPLQPQAAEPPPRPKTPEIFRALEGEAHRVLFGFVPETKEELQVMPGNIVFVLKKGNDNWATVMFNGQKGLVPCNYLEPVELRIHPQQQPQEESSPQSDIPAPPSSKAPGRPQLSPGQKQKEEPKEVKLSVPMPYTLKVHYKYTVVMKTQPGLPYSQVRDMVSKKLELRLEHTKLSYRPRDSNELVPLSEDSMKDAWGQVKNYCLTLWCENTVGDQGFPDEPKESEKADANNQTTEPQLKKGSQVEALFSYEATQPEDLEFQEGDIILVLSKVNEEWLEGECKGKVGIFPKVFVEDCATTDLESTRREV
B6: Dual specificity protein phosphatase 23 (Homo sapiens), Q9BVJ7 (parent)
chain: MGVQPPNFSWVLPGRLAGLALPRLPAHYQFLLDLGVRHLVSLTERGPPHSDSCPGLTLHRLRIPDFCPPAPDQIDRFVQIVDEANARGEAVGVHCALGFGRTGTMLACYLVKERGLAAGDAIAEIRRLRPGSIETYEQEKAVFQFYQRTK

Variants of: B1
Details: with goga2_human GOLGA2, Q08379
Target sequence in this assay (Q08379 whole entry): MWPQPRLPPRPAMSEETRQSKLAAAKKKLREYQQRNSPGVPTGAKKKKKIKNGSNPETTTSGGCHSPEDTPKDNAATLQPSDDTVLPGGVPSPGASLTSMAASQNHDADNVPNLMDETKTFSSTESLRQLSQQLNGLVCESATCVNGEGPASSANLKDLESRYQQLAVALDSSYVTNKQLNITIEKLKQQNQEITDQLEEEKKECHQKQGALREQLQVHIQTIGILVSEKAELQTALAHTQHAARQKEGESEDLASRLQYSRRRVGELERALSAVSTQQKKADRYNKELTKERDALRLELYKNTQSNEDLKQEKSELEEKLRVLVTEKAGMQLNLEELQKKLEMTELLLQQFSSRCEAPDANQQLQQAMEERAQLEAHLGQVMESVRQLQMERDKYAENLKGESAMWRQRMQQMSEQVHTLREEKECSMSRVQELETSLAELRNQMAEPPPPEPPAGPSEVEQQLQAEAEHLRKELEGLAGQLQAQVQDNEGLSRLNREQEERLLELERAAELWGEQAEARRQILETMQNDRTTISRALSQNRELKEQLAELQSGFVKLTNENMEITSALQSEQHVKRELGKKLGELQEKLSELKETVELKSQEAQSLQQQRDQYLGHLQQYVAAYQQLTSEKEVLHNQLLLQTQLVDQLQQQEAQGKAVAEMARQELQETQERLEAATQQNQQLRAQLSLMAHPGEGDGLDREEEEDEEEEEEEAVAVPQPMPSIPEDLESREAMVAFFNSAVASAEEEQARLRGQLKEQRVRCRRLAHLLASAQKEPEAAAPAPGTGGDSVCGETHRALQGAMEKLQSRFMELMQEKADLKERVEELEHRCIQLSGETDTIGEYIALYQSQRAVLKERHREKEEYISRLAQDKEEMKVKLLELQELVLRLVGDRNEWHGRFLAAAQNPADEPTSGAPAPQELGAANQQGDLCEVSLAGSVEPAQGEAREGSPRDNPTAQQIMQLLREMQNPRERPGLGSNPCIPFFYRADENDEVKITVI

| effect of a mutation on the interaction | Variant |
| --- | --- |
| disrupting interaction strength | T103A |
| with no effect | H128L |
| disrupting interaction strength | Q285R |

Variants of: B1
Details: with hgs_human HGS

| effect of a mutation on the interaction | Variant |
| --- | --- |
| disrupting interaction strength | T103A |
| with no effect | H128L |
| disrupting interaction strength | Q285R |

Variants of: B1
Details: with syce1_human SYCE1, Q8N0S2
Sequence of syce1_human SYCE1, Q8N0S2 (Q8N0S2 whole entry): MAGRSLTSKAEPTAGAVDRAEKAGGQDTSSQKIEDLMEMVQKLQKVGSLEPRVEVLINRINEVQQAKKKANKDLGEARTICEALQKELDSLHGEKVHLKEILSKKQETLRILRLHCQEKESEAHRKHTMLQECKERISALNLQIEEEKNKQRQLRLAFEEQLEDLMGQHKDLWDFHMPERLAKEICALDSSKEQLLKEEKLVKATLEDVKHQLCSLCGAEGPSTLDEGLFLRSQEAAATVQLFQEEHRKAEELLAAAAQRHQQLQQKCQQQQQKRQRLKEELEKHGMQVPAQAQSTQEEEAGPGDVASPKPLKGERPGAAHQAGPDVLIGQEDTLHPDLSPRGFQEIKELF

| effect of a mutation on the interaction | Variant |
| --- | --- |
| disrupting interaction strength | T103A |
| with no effect | H128L |
| with no effect | Q285R |

Variants of: B2
Details: with psa3_human PSMA3, P25788
Sequence of psa3_human PSMA3, P25788 (P25788 whole entry): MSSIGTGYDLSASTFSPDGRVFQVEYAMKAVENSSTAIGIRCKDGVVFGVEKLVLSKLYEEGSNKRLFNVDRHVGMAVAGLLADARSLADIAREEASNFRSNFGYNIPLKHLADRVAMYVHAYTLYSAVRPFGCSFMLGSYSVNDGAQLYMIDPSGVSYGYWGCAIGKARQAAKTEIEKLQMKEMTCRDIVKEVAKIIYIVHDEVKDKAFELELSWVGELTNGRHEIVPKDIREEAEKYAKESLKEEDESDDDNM

| effect of a mutation on the interaction | Variant |
| --- | --- |
| disrupting interaction strength | M200V |

Variants of: B2
Details: with sdcb1_human SDCBP

| effect of a mutation on the interaction | Variant |
| --- | --- |
| disrupting interaction strength | M200V |

Variants of: B3
Details: with MID2, Q9UJV3-2

| effect of a mutation on the interaction | Variant |
| --- | --- |
| with no effect | L107V |

Variants of: B4
Details: with epmip_human EPM2AIP1, Q7L775

| effect of a mutation on the interaction | Variant |
| --- | --- |
| with no effect | T72M |

Variants of: B5
Details: with goga2_human GOLGA2, Q08379
Target sequence in this assay (Q08379 whole entry): as the sequence (Q08379 whole entry) above

| effect of a mutation on the interaction | Variant |
| --- | --- |
| with no effect | N419I |
| with no effect | R395W |

Second part, the variant before the results:

| Variant | effect of a mutation on the interaction |
| --- | --- |
| G78E | disrupting interaction strength |
| R77Q | disrupting interaction strength |

Variants of: B5
Details: with kifa3_human KIFAP3, Q92845
Sequence of kifa3_human KIFAP3, Q92845 (Q92845 whole entry): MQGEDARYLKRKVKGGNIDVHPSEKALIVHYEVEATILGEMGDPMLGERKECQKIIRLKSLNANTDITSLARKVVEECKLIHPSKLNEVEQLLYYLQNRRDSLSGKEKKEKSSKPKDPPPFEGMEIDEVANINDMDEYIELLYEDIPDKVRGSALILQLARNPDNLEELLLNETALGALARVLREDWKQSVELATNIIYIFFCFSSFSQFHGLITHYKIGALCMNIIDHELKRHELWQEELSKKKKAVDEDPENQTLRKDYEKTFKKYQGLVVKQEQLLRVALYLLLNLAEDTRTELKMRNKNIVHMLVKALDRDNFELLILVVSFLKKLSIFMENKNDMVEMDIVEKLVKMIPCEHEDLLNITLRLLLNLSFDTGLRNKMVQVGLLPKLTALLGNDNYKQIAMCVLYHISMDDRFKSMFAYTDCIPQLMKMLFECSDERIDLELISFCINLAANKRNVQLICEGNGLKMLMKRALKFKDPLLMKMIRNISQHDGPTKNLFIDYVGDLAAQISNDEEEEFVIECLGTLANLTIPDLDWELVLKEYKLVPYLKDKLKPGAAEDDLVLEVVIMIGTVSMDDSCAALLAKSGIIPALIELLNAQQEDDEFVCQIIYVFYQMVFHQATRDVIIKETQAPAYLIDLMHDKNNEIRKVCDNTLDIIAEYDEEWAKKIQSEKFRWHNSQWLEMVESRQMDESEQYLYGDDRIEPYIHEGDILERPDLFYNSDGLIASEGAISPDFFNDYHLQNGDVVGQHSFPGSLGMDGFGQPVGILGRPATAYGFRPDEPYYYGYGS

| effect of a mutation on the interaction | Variant |
| --- | --- |
| with no effect | N419I |
| with no effect | R395W |

Continued, variant first:

| Variant | effect of a mutation on the interaction |
| --- | --- |
| G78E | disrupting interaction strength |
| R77Q | disrupting interaction strength |

Variants of: B6
Details: with exos8_human EXOSC8, Q96B26
Sequence of exos8_human EXOSC8, Q96B26 (Q96B26 whole entry): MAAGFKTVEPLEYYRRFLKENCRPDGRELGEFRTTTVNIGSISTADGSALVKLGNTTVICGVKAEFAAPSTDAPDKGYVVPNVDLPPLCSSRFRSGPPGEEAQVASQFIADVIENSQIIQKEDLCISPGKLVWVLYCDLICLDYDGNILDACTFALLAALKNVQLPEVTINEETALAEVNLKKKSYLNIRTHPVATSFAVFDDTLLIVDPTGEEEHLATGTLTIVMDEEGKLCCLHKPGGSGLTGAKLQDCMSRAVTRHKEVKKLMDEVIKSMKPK

| effect of a mutation on the interaction | Variant |
| --- | --- |
| with no effect | G131S |
